Source: PMC11335189, “Revealing molecular determinants governing mambalgin-3 pharmacology at acid-sensing ion channel 1 variants” (Cellular and Molecular Life Sciences: CMLS, 2024)
Substitutions are numbered along the chain they refer to.

T1: rat acid-sensing ion channel 1a (rat) (UniProt P55926)
T1 sequence: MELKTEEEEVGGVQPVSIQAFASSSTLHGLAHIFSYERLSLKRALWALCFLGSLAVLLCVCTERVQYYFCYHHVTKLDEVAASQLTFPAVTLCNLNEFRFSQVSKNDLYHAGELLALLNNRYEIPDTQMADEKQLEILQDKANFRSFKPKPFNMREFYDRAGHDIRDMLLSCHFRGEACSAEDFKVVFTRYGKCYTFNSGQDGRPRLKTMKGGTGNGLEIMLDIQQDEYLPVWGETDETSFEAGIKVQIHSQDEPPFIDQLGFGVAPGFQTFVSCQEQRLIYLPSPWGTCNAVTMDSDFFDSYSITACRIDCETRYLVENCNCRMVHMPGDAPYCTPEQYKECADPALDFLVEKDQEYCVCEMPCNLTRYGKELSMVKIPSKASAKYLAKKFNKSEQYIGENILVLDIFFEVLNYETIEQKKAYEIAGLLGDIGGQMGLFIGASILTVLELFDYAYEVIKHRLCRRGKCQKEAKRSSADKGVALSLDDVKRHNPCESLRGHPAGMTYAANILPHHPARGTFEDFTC

T2: rat acid-sensing ion channel 1b (rat)
T2 sequence (P55926 whole entry, looked up): T1 sequence

T3: human acid-sensing ion channel 1a (human) (UniProt P78348)
T3 sequence: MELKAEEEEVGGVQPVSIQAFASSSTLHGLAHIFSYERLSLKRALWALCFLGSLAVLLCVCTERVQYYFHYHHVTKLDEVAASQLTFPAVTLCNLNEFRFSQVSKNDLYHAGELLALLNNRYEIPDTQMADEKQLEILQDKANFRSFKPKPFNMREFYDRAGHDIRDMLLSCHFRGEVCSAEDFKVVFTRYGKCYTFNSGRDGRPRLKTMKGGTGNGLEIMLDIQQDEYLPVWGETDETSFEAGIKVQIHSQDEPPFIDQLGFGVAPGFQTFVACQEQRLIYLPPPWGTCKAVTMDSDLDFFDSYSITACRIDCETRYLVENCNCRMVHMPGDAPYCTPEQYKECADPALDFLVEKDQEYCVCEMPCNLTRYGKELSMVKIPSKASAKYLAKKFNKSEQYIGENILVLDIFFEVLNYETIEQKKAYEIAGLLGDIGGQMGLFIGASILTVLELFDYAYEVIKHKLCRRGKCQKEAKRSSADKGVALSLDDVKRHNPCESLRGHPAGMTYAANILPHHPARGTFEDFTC

T4: rASIC1a S83T/Q84E/R175C/E177G (rat) (UniProt P55926)
T4 sequence: T1 sequence with S83T, Q84E, R175C, E177G

T5: rASIC1a E362R (rat) (UniProt P55926)
T5 sequence: T1 sequence with E362R

B1: mambalgin-3 (peptide)
chain: SLKCYQHGKVVTCHRDMKFCYHNIGMPFRNLKLILQGCSSSCSETENNKCCSTDRCNK

Experiments:
[1] = biological target: T1, rat acid-sensing ion channel 1a (rat)
[2] = biological target: T2, rat acid-sensing ion channel 1b (rat)
[3] = biological target: T3, human acid-sensing ion channel 1a (human)
[4] = biological target: T4, rASIC1a S83T/Q84E/R175C/E177G (rat)
[5] = biological target: T2, rat acid-sensing ion channel 1b (rat); remark: listed apart in the source
[6] = biological target: rASIC1b T128S/E129Q/C208R/G210E (rat)
[7] = biological target: T1, rat acid-sensing ion channel 1a (rat); remark: listed apart in the source
[8] = biological target: T2, rat acid-sensing ion channel 1b (rat); remark: listed apart in the source
[9] = biological target: T5, rASIC1a E362R (rat)
[10] = biological target: T3, human acid-sensing ion channel 1a (human); remark: listed apart in the source

Molecule	fold loss of potency of current inhibition against wild-type Ma-3 (conditioning pH 7.45, stimulus pH 6) [1]	fold loss of potency of current inhibition against wild-type Ma-3 (conditioning pH 7.45, stimulus pH 6) [2]	fold loss of potency of current inhibition against wild-type Ma-3 (conditioning pH 7.45, stimulus pH 6) [3]	I/I (control) of pH 6-evoked currents with 300 nM peptide (I/I (control)) [4]	I/I (control) of pH 6-evoked currents with 300 nM peptide (I/I (control)) [5]	IC50 of inhibition of pH 6-evoked currents (conditioning pH 7.45) [6]	IC50 of inhibition of pH 6-evoked currents (two-electrode voltage clamp, Xenopus oocytes, conditioning pH 7.45) [7]	IC50 of inhibition of pH 6-evoked currents (two-electrode voltage clamp, Xenopus oocytes, conditioning pH 7.45) [8]	maximal inhibition of pH 6-evoked currents at saturating Ma-3 [8]	concentration-response of inhibition of pH 6-evoked currents (conditioning pH 7.45); fold change against wild-type rASIC1a [9]	IC50 of inhibition of pH 6-evoked currents (two-electrode voltage clamp, Xenopus oocytes, conditioning pH 7.45) [10]
Ma-3 K8A (peptide)	4 fold	> 30 fold	4 fold	0.65	0.91						
B1				0.48	0.4	18.5 nM	3.9 nM	38.3 nM	60%	5 fold	25 nM
